Measured values reported in patent US20190142860A1, “NUCLEIC ACID BASED TIA-1 INHIBITORS” (Aquinnah Pharmaceuticals, Inc., priority 2015, published 2019).

Columns and labels:
[1] = target: Nucleolysin TIA-1 (endogenous mouse TIA1) (mouse) (UniProt P52912); test: TIA1 IP-MS, WT2 cortex
[2] = target: Nucleolysin TIA-1 (endogenous mouse TIA1) (mouse) (UniProt P52912); test: TIA1 IP-MS, tau KO 2 cortex
[3] = target: Nucleolysin TIA-1 (endogenous mouse TIA1) (mouse) (UniProt P52912); test: TIA1 IP-MS, tau KO 3 cortex
[4] = target: Nucleolysin TIA-1 (endogenous mouse TIA1) (mouse) (UniProt P52912); test: TIA1 IP-MS, WT1 cortex
[5] = target: Nucleolysin TIA-1 (endogenous mouse TIA1) (mouse) (UniProt P52912); test: TIA1 IP-MS, WT3 cortex
[6] = target: Nucleolysin TIA-1 (endogenous mouse TIA1) (mouse) (UniProt P52912); test: TIA1 IP-MS, tau KO 1 cortex

Chain of UniProt P52912 (P52912 whole entry): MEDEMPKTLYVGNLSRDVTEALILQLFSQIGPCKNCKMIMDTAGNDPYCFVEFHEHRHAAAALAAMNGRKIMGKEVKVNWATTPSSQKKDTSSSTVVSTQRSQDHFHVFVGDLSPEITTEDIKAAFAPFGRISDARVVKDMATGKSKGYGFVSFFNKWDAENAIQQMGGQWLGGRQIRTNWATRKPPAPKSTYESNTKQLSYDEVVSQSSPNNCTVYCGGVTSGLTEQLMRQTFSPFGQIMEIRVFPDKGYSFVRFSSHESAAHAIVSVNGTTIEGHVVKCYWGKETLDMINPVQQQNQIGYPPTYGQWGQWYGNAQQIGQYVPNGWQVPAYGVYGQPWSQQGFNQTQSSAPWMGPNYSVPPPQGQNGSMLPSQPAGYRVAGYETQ

| Substance | total ion current (normalized to TIA1 = 1000) [1] | total ion current (normalized to TIA1 = 1000) [2] | total ion current (normalized to TIA1 = 1000) [3] | total ion current (normalized to TIA1 = 1000) [4] | total ion current (normalized to TIA1 = 1000) [5] | total ion current (normalized to TIA1 = 1000) [6] |
| --- | --- | --- | --- | --- | --- | --- |
| PH and SEC7 domain-containing protein 3 (from UniProt Q2PFD7 1-1037) | 555 | 133 | 0 | 0 | 0 | 0 |
| Phosphatidylinositol 5-phosphate 4-kinase type-2 gamma (from UniProt Q91XU3 2-421) | 36.6 | 0 | 0 | 0 | 0 | 0 |
| Phytanoyl-CoA hydroxylase-interacting protein (from UniProt Q8K0S0 1-330) | 17.1 | 54.7 | 0 | 0 | 0 | 0 |
| Poly(rC)-binding protein 1 (from UniProt P60335 1-356) | 19.2 | 58.5 | 0 | 0 | 30.2 | 0 |
| Polyadenylate-binding protein 1 (from UniProt P29341 1-636) | 50.7 | 86.4 | 0 | 0 | 0 | 0 |
| Probable ATP-dependent RNA helicase DDX17 (from UniProt Q501J6 1-650) | 135 | 34.1 | 0 | 0 | 0 | 0 |
| Prohibitin (from UniProt P67778 2-272) | 172 | 137 | 0 | 0 | 37.7 | 0 |
| Prohibitin-2 (from UniProt O35129 2-299) | 440 | 292 | 0 | 0 | 171 | 0 |
| Proteasome subunit alpha type-4 (from UniProt Q9R1P0 1-261) | 0 | 0 | 0 | 10.5 | 0 | 0 |
| Protein Golgb1 | 0 | 0 | 0 | 0 | 259 | 0 |
| Protein NipSnap homolog 1 (from UniProt O55125 36-284) | 219 | 27 | 0 | 0 | 0 | 0 |
| Protein NipSnap homolog 2 (from UniProt O55126 28-281) | 81 | 0 | 0 | 0 | 0 | 0 |
